In paper PMC6511843:

B1: HA.ELK-1 [not stated] / recombinant core^SRF [not stated] (parent)
chain 1: MDPSVTLWQFLLQLLREQGNGHIISWTSRDGGEFKLVDAEEVARLWGLRKNKTNMNYDKLSRALRYYYDKNIIRKVSGQKFVYKFVSYPEVAGCSTEDCPPQPEVSVTSTMPNVAPAAIHAAPGDTVSGKPGTPKGAGMAGPGGLARSSRNEYMRSGLYSTFTIQSLQPQPPPHPRPAVVLPSAAPAGAAAPPSGSRSTSPSPLEACLEAEEAGLPLQVILTPPEAPNLKSEELNVEPGLGRALPPEVKVEGPKEELEVAGERGFVPETTKAEPEVPPQEGVPARLPAVVMDTAGQAGGHAASSPEISQPQKGRKPRDLELPLSPSLLGGPGPERTPGSGSGSGLQAPGPALTPSLLPTHTLTPVLLTPSSLPPSIHFWSTLSPIAPRSPAKLSFQFPSSGSAQVHIPSISVDGLSTPVVLSPGPQKP
chain 2: SGAKPGKKTRGRVKIKMEFIDNKLRRYTTFSKRKTGIMKKAYELSTLTGTQVLLLVASETGHVYTFATRKLQPMITSETGKALIQTCLNSP

Variants of: B1
Assay: EMSA (ternary complex with coreSRF on radio-labelled SRE probe), densitometry
Conditions: parent: 100, read off a plot

Variant	percent of parent (% of ELK-1 (WT = 100))
chain 1 MDPSVTLWQFLLQLLREQGNGHIISWTSRDGGEFKLVDAEEVARLWGLRRNRTNMNYDKLSRALRYYYDKNIIRKVSGQKFVYKFVSYPEVAGCSTEDCPPQPEVSVTSTMPNVAPAAIHAAPGDTVSGKPGTPKGAGMAGPGGLARSSRNEYMRSGLYSTFTIQSLQPQPPPHPRPAVVLPSAAPAGAAAPPSGSRSTSPSPLEACLEAEEAGLPLQVILTPPEAPNLKSEELNVEPGLGRALPPEVKVEGPKEELEVAGERGFVPETTKAEPEVPPQEGVPARLPAVVMDTAGQAGGHAASSPEISQPQKGRKPRDLELPLSPSLLGGPGPERTPGSGSGSGLQAPGPALTPSLLPTHTLTPVLLTPSSLPPSIHFWSTLSPIAPRSPAKLSFQFPSSGSAQVHIPSISVDGLSTPVVLSPGPQKP [chain 1 K50R K52R]	51
chain 1 MDPSVTLWQFLLQLLREQGNGHIISWTSRDGGEFKLVDAEEVARLWGLRKNKTNMNYDRLSRALRYYYDKNIIRKVSGQKFVYKFVSYPEVAGCSTEDCPPQPEVSVTSTMPNVAPAAIHAAPGDTVSGKPGTPKGAGMAGPGGLARSSRNEYMRSGLYSTFTIQSLQPQPPPHPRPAVVLPSAAPAGAAAPPSGSRSTSPSPLEACLEAEEAGLPLQVILTPPEAPNLKSEELNVEPGLGRALPPEVKVEGPKEELEVAGERGFVPETTKAEPEVPPQEGVPARLPAVVMDTAGQAGGHAASSPEISQPQKGRKPRDLELPLSPSLLGGPGPERTPGSGSGSGLQAPGPALTPSLLPTHTLTPVLLTPSSLPPSIHFWSTLSPIAPRSPAKLSFQFPSSGSAQVHIPSISVDGLSTPVVLSPGPQKP [chain 1 K59R]	11
